These results are taken from patent US20220282217A1 (BIONTECH US, published 2022).

Experiment [1] deals with T1, HLA-A24.02 (human).
T1 construct: As for HLA-A02.01
Nature of the experiment: pMHC-I complex dissociation at 37 C, 125I-b2m, half-life. The method, then:
(§1) Briefly, synthetic genes encoding biotinylated MHC-I heavy and light chains are expressed in E. coli and purified from inclusion bodies using standard methods. […] These reactions are carried out in streptavidin coated microplates to bind the biotinylated MHC-I heavy chains to the surface and allow measurement of radiolabeled light chain to monitor complex formation. Dissociation is initiated by addition of higher concentrations of unlabeled light-chain and incubation at 37° C. Stability is defined as the length of time in hours it takes for half of the complexes to dissociate, as measured by scintillation counts.

Experiment [2] addresses HLA-A02.01 (human). The experiment is described as above. The method, then:
as §1

Experiment [3] addresses T1, HLA-A24.02. Kind of experiment: competition vs radiolabeled reference peptide on purified MHC I, gel filtration. The method, then: (§2) Peptides were incubated at varying concentrations with these complexes for 2 days, and the amount of remaining radiolabeled peptide bound to […] was measured using size exclusion gel-filtration.
Experiment [4] has as its target HLA-A02.01 (human). The experiment is described as above. On the procedure:
as §2

In experiment [5] the target is T2, HLA class I molecule B08.01.
T2 construct: Purified MHC class I complex; also called HLA-B08:01
Nature of the experiment: pMHC-I dissociation assay with 125I-labeled beta2m light chain at 37 C, scintillation counts; time in hours for half of the complexes to dissociate. On the procedure: as §1

For experiment [6], the target named is T3, HLA class I molecule B07.02.
T3 construct: Purified MHC class I complex; also called HLA-B07:02
Kind of experiment: competition with radiolabeled reference peptide on purified MHC I. On the procedure: as §2

The target of experiment [7] is T4, HLA class I molecule A24.02.
T4 construct: Purified MHC class I complex; also called HLA-A24:02
The experiment is described as above. On the procedure: as §2

The target of experiment [8] is T5, HLA class I molecule A02.01.
T5 construct: Purified MHC class I complex; also called HLA-A02:01
Described as above. The method, then: as §2

Experiment [9] has as its target T3, HLA class I molecule B07.02. Kind of experiment: pMHC-I dissociation assay with 125I-labeled beta2m light chain at 37 C, scintillation counts; time in hours for half of the complexes to dissociate. On the procedure:
as §1

In experiment [10] the target is T6, HLA class I molecule A01.01.
T6 construct: Purified MHC class I complex; also called HLA-A01:01
Kind of experiment: competition with radiolabeled reference peptide on purified MHC I. The method, then:
as §2

In experiment [11] the target is T5, HLA class I molecule A02.01. Nature of the experiment: pMHC-I dissociation half-life, 125I-b2m. The gist of the method: (§3)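 Biotinylated MHC-I heavy chain made in E. coli, captured on streptavidin plates and complexed with peptide and radiolabelled light chain. Dissociation started with excess unlabelled light chain at 37 °C. Stability is the half-life in hours from scintillation counts.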

For experiment [12], the target named is T2, HLA class I molecule B08.01. Nature of the experiment: pMHC-I dissociation half-life, 125I-b2m. The procedure, abridged:
as §3

Experiment [13] has as its target T7, HLA-B07.02 (human).
T7 construct: Purified class I MHC
Nature of the experiment: competition with radiolabeled reference peptide, purified MHC I. The method, then: as §2

In experiment [14] the target is T7, HLA-B07.02. Kind of experiment: pMHC-I dissociation half-life, 125I-b2m. The gist of the method:
as §3

Experiment [15] concerns the target T8, HLA class I molecule A03.01.
T8 construct: Purified MHC class I complex; also called HLA-A03:01
Kind of experiment: competition with radiolabeled reference peptide on purified MHC I. On the procedure:
as §2

What is called IC50 is the point on the concentration scale where inhibition reaches its midpoint. High values mean a need for much substance, low ones inhibition by little substance. As to YLVIQLQDKF (also called EGFR: SEPT14), the “Stability (T1/2 (h))” value with HLA-A24.02 [1] was 2.6 h; in the experiment with HLA-A02.01 [2] it was 0 h. Further, the IC50 was 2150 nM with HLA-A24.02 [3] and 2060 nM with HLA-A02.01 [4].

Take IMKPKRDGYM (also called GATA3 . . ; CSNH): the “Observed MHC Stability” value in experiment [5] came to 0.4 h. Turning to LPQARLCLI (also called MSH3(-1)), the concentration for half-maximal inhibition (IC50) in experiment [6] amounted to 72.6 nM. With LLYITAFFLL (also called NDUFC2 (-KCDT14)(-1)), the results for the IC50 in experiment [7] and in experiment [8] were 60.1 nM and 323 nM, respectively.

MFLKAESKI (also called GATA3 . . ; CSNH) showed a 50% inhibitory concentration (IC50) in [7] of 332 nM. The molecule MFATLQRSSL (also called GATA3 . . ; CSNH) showed an IC50 in [6] of 267 nM. For the same molecule, the “Observed MHC Stability” value in experiment [9] and in experiment [5] was 0 h in each case. As to FLKAESKIMF (also called GATA3 . . ; CSNH), in [5], the “Observed MHC Stability” value turned out to be 0 h. In turn, LYITAFFLL (also called NDUFC2 (-KCDT14)(-1)) displayed an IC50 in [7] of 0.1 nM.

TGSNEVTTRY (also called RBM27(+1)) came in with an IC50 in experiment [10] of 15500 nM. The molecule LYITAFFFCW (also called NDUFC2 (-KCDT14)(+1)) came in with an IC50 in [7] of 45.3 nM.

Regarding LLALWECSL (also called MSH3(-1)), the “Stability (T1/2 (h))” value came to 4 h in experiment [11] and 0 h in experiment [12]. KPTRAATVSV (also called TP53, QPSL) returned an IC50 in the experiment with HLA-B07.02 [13] of 8 nM. In the experiment with HLA-B07.02 [14], the “Stability (T1/2 (h))” value turned out to be 3 h. QVLHECNSL (also called MEK, P124L): the “Stability (T1/2 (h))” value was found to be 0.5 h in experiment [11] and 0 h in [12]. The IC50 in experiment [8] came out at 7770 nM. As to FATLQRSSL (also called GATA3 . . ; CSNH), the IC50 in [6] amounted to 14 nM. In addition, the “Observed MHC Stability” value was found to be 0.7 h in experiment [9] and 0 h in [5].

For the molecule AISTRDPLSK (also called PIK3CA, E542K), in experiment [15], the IC50 stood at 57.5 nM. In experiment [7], LYITAFFLLD (also called NDUFC2 (-KCDT14)(-1)) registered an IC50 of 0.4 nM. LLYITAFFL (also called NDUFC2 (-KCDT14)(-1)): the “Stability (T1/2 (h))” value in experiment [11] amounted to 17 h; in experiment [12] it was 0 h. Besides, the IC50 in experiment [8] is 713 nM. The molecule GPPARVPAV (also called GATA3 . . ; CSNH) gave an IC50 in experiment [6] of 221 nM. Further, the “Observed MHC Stability” value in [9] was found to be 1.6 h.

In experiment [10], ILDTAGHEEY (also called KRAS, Q61H) gave an IC50 of 64.2 nM. In other words, the double-digit nanomolar range.

For the molecule ILDTAGREEY (also called NRAS, Q61R), in experiment [10], the IC50 is 7 nM.

In turn, ILDTAGKEEY (also called NRAS, Q61K) had an IC50 in experiment [10] of 14.3 nM. The same measure, in the same setting: to ILDTAGLEEY (also called KRAS, Q61L) belongs 8.6 nM. In experiment [6], KPKRDGYMF (also called GATA3 . . ; CSNH) showed a concentration for half-maximal inhibition (IC50) of 28.2 nM. The “Observed MHC Stability” value in experiment [9] was found to be 8.6 h. In the case of KSRQNHLQL (also called SMAP1(-1)), the concentration for half-maximal inhibition (IC50) with HLA-B07.02 [13] stood at 78 nM. With GVYTFLPSTL (also called ESR1, S463P), the “Stability (T1/2 (h))” value in the experiment with HLA-A24.02 [1] worked out at 0 h; in the experiment with HLA-A02.01 [2], 0.4 h. Further, the half-maximal inhibitory concentration (IC50) is 7700 nM in the experiment with HLA-A24.02 [3] and 1200 nM with HLA-A02.01 [4]. On to FLKAESKIM (also called GATA3 . . ; CSNH), for which the “Observed MHC Stability” value in experiment [5] was 1.2 h. On to KGPELFPLI (also called C11orf95: RELA), for which the “Stability (T1/2 (h))” value with HLA-A24.02 [1] is 1.7 h; with HLA-A02.01 [2], 0.3 h. Also, the results for the IC50 with HLA-A24.02 [3] and with HLA-A02.01 [4] were 14 nM and 101 nM, respectively. For the molecule KPKRDGYMFL (also called GATA3 . . ; CSNH), the IC50 in experiment [6] is 98.1 nM. Further, the “Observed MHC Stability” value in experiment [9] came out at 3.3 h. With LHFCRSSIM (also called GATA3 . . ; CSNH), in [5], the “Observed MHC Stability” value was 0 h.

With FFCWILSCK (also called NDUFC2 (-KCDT14)(+1)), the IC50 in experiment [15] was 185 nM. VVPLCDLLL (also called ESR1, Y537C): the entries for the “Stability (T1/2 (h))” value with HLA-A24.02 [1] and with HLA-A02.01 [2] were 0.4 h and 0 h, respectively. For the same molecule, the IC50 in the experiment with HLA-A24.02 [3] came out at 3890 nM; with HLA-A02.01 [4] it was 1200 nM. As for VVPLSDLLL (also called ESR1, Y537S), the “Stability (T1/2 (h))” value with HLA-A24.02 [1] was 0.5 h; in the experiment with HLA-A02.01 [2] it was 0 h. Moreover, the IC50 stood at 8250 nM in the experiment with HLA-A24.02 [3] and 2550 nM with HLA-A02.01 [4]. As to LQVLHECNSL (also called MEK, P124L), the “Stability (T1/2 (h))” value in experiment [11] and in [12] was 0 h throughout. Moreover, in experiment [8], the half-maximal inhibitory concentration (IC50) was 4720 nM. The molecule FFFCWILSCK (also called NDUFC2 (-KCDT14)(+1)) returned an IC50 in experiment [15] of 597 nM. In the experiment with HLA-B07.02 [13], ALKKLRSPL (also called SMAP1(-1)) came in with an IC50 of 223 nM. Regarding VLWTTPPLQH (also called GATA3 . . ; CSNH), the IC50 in experiment [15] stood at 16 nM. For the molecule KLSDSRTAL (also called FRG1B, I1OT), the “Stability (T1/2 (h))” value in experiment [12] came out at 0 h. As to ESKIMFATL (also called GATA3 . . ; CSNH), in experiment [5], the “Observed MHC Stability” value stood at 1.3 h. As to TTNAFSGEY (also called RAC1, P29S), the IC50 in experiment [10] came to 4.4 nM. That is a single-digit nanomolar value. RVQNQGHLL (also called UBR5(-1)): the IC50 in the experiment with HLA-B07.02 [13] came out at 826 nM. For the molecule GSNEVTTRY (also called RBM27(+1)), the IC50 in experiment [10] turned out to be 606 nM. In turn, YTTNAFSGEY (also called RAC1, P29S) showed an IC50 in experiment [10] of 10.5 nM. With VVPLYGLLL (also called ESR1, D538G), the “Stability (T1/2 (h))” value with HLA-A24.02 [1] is 0.8 h; in the experiment with HLA-A02.01 [2], 0.6 h. This molecule also returned an IC50 in the experiment with HLA-A24.02 [3] of 658 nM. LPRKPTRAAT (also called TP53, QPSL) returned an IC50 in the experiment with HLA-B07.02 [13] of 3 nM. Also, in the experiment with HLA-B07.02 [14], the “Stability (T1/2 (h))” value is 3.7 h.
